Measured values: publication PMC8173604 (Cell, 2021)

Target: purified HLA-A*02:01 MHC molecule (human | )
Experiment: radioligand binding

Binder	IC50
GLITLSYHL [GLITLSYHL, HLA-I peptide from S.iORF1/2]	< 0.5 nM
MLLGSMLYM [MLLGSMLYM, HLA-I peptide from S.iORF1/2]	< 0.5 nM
